Reference: patent publication US20130089536

Target: Aβ1-40 peptide (UniProt P05067)

With “hGCP II (wild type human glutamate carboxypeptidase II expressed from cDNA in cells)” as the substance, how does the “Aβ1-40 cleavage in primary rat astrocytes (Aβ1-40 in growth medium by ELISA)” value read?
Its value is 2-PMPA did not block A1-40 cleavage of lentiviral GCP II.
